Assay results: publication PMC9354671, “Novel interaction interfaces mediate the interaction between the NEIL1 DNA glycosylase and mitochondrial transcription factor A” (Frontiers in Cell and Developmental Biology, 2022)

Tests used:
Settings in all cases: both partners purified
[1] = molecular target: T1, NEIL1-Δ100, truncated NEIL1 lacking 100 residues from the disordered C-terminal region (human, UniProt Q96FI4 1-290); assay: pull-down; reverse: Flag-tagged TFAM held on anti-FLAG M2 magnetic beads, NEIL1-FL or NEIL1-Δ100 as prey; with and without DNA; eluted with 3X Flag peptide, SDS-PAGE
T1 construct: NEIL1, human, C-terminal 100 residues deleted; Prakash et al., 2017; Sharma et al., 2018; also called NEIL1-∆100; source: E. coli Rosetta 2, purified

NEIL1-∆78 = molecular target: T2, NEIL1-∆78 (human, UniProt Q96FI4 1-312); assay: far-Western, overlay or dot blot; 50 pmol NEIL1 polypeptides separated by SDS-PAGE, on PVDF, denatured in 6M guanidine HCl and refolded; incubated with purified TFAM overnight; detected with anti-TFAM antibody
T2 construct: NEIL1, human, C-terminal 78 residues deleted; source: E. coli Rosetta 2, purified

NEIL1-∆56 = molecular target: T3, NEIL1-∆56 (human, UniProt Q96FI4 1-334); assay: as above
T3 construct: NEIL1, human, C-terminal 56 residues deleted; source: E. coli Rosetta 2, purified

[2] = molecular target: T1, NEIL1-Δ100, truncated NEIL1 lacking 100 …; assay: as above
NEIL1-∆40 = molecular target: T4, NEIL1-∆40 (human, UniProt Q96FI4 1-350); assay: as above
T4 construct: NEIL1, human, C-terminal 40 residues deleted; source: E. coli Rosetta 2, purified

[3] = molecular target: T5, full-length NEIL1 (NEIL1-FL), C-terminal His-tagged (human, UniProt Q96FI4 1-390); assay: as above
T5 construct: NEIL1 DNA glycosylase, human, full length (390 residues by the printed tail aa 290-390; theoretical mass with tag 44.75 kDa); pET30a plasmid from the Doublié and Wallace laboratories; Called 'untagged' in the Flag pull-down, meaning without Flag; also called NEIL1 DNA glycosylase; source: E. coli Rosetta 2, purified (Talon beads, HiTrap SPFF ion exchange, Superdex 200); not shown: His tag, …

Measured: binding result

T1 sequence (Q96FI4 1-290, stated change not applied): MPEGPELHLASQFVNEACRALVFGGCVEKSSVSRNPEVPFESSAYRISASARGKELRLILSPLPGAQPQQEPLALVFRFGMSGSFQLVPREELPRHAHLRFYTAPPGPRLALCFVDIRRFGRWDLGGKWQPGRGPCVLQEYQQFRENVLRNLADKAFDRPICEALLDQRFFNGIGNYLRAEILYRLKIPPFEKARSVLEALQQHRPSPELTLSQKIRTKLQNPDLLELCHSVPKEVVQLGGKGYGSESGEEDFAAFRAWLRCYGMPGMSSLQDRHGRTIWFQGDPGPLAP
T2 sequence (Q96FI4 1-312): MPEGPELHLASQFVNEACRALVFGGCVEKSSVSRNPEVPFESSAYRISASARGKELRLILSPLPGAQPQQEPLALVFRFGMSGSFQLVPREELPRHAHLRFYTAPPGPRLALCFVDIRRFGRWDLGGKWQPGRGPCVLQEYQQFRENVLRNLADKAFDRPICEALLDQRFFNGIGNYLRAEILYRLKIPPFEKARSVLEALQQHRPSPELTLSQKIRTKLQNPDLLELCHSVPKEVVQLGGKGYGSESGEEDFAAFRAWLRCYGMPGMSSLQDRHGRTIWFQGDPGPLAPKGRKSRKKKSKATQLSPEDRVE
T4 sequence (Q96FI4 1-350): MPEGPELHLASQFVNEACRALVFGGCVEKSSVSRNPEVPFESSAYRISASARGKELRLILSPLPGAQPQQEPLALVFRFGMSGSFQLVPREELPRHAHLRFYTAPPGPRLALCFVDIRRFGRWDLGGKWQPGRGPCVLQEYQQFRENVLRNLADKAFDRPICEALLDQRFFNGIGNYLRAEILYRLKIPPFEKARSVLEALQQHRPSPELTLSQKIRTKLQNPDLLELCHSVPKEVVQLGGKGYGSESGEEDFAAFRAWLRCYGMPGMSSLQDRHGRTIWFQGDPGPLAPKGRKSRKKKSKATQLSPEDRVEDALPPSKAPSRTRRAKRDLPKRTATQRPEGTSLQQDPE
T5 sequence (Q96FI4 whole entry, the tested form may be a part): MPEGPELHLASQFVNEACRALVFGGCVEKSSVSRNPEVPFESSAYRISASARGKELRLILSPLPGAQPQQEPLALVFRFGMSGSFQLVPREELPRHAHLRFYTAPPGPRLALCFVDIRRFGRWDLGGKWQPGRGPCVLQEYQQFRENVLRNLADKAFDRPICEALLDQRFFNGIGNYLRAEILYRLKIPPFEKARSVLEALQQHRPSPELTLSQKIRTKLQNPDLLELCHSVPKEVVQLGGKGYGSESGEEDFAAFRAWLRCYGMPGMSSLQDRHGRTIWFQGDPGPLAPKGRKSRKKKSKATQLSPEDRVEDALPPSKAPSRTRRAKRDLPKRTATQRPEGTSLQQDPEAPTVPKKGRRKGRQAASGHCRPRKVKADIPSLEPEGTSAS
T3 sequence (Q96FI4 1-334): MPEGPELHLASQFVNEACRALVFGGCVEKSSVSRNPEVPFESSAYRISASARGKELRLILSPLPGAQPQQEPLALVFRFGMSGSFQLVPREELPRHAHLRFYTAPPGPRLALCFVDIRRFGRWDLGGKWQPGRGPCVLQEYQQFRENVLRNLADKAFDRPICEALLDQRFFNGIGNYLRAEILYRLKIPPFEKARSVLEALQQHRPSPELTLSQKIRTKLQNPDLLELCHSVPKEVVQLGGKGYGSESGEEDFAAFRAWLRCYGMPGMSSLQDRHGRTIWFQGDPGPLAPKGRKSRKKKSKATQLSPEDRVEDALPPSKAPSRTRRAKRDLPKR

B1: Flag-tagged TFAM (natural protein, UniProt Q00059 43-246, looked up)
chain: SSVLASCPKKPVSSYLRFSKEQLPIFKAQNPDAKTTELIRRIAQRWRELPDSKKKIYQDAYRAEWQVYKEEISRFKEQLTPSQIMSLEKEIMDKHLKRKAMTKKKELTLLGKPKRPRSAYNVYVAERFQEAKGDSPQEKLKTVKENWKNLSDSEKELYIQHAKEDETRYHNEMKSWEEQMIEVGRKDLLRRTIKKQRKYGAEEC
notes: also called C-terminal Flag-tagged purified TFAM; source: E. coli, purified; not shown: Flag, C-terminal, kept
binds: [1]

B2: mitochondrial transcription factor A (TFAM) lacking the mitochondrial targeting sequence (natural protein, UniProt Q00059 43-246, looked up)
chain: B1 chain
notes: theoretical MW 25.6 kDa; Printed domain limits: HMG-box A 43-122, linker 122-152, HMG-box B 152-222, C-terminal tail 222-246; Subcloned into pET30a from a full-length ORF plasmid; also called full-length TFAM monomer (lacking the N-terminal MTS); source: E. coli, purified (as Ngo et al., 2011)
binds: NEIL1-∆78 | NEIL1-∆56 | [2] | NEIL1-∆40 | [3]
